In patent publication US20140161804A1 (AbbVie / Abbott, published 2014):

Columns and labels:
Human IL-17A [1] = molecular target: T1, Human IL-17A (human, UniProt Q16552 20-155, limits assumed); experiment: ELISA, captured DVD-Ig, biotin-human IL-17 titrated
T1 construct: Biotinylated in the ELISAs; purified recombinant protein in SPR; also called hIL17A; hIL-17
Description: (§1) The following protocol is used to characterize the binding of TNF/IL-17 DVD-Ig proteins to human TNF and IL-17 by enzyme-linked immunosorbent assay (ELISA). An ELISA plate was coated with 50 μl per well of goat anti mouse IgG-Fc at 2 μg/ml, overnight at 4° C. The plate was washed 3 times with PBS/Tween. 50 μl Mab diluted to 1 μg/ml in PBS/0.1% BSA was added to appropriate wells and incubated for 1 hour at room temperature (RT). The plate was washed 3 times with PBS/Tween. 50 μl of serial diluted biotin-human TNF or IL-17 was added to appropriate wells and incubated for 1 hour at RT. The plate was washed 3 times with PBS/Tween. 50 μl of streptavidin-HRP diluted 1:10,000 in PBS/0.1% BSA was added to appropriate wells and incubated for 1 hour at RT. The plate was washed 3 times with PBS/Tween. 50 μl of TMB was added to appropriate wells and the reaction allowed to proceed for 1 minute. The reaction was stopped with 50 μl/well 2N H₂SO₄ and the absorbance read at 450 nm.

Human IL-17A [2] = molecular target: T1, Human IL-17A; experiment: SPR (Biacore T200), DVD-Ig captured by anti-human IgG Fc, antigen in solution
Description: (§2) The binding of antibodies to purified recombinant IL-17 and TNFα proteins were determined by surface plasmon resonance-based measurements with a Biacore® T200 instrument (GE Healthcare) using running HBS-EP (10 mM HEPES [pH 7.4], 150 mM NaCl, 3 mM EDTA, and 0.005% surfactant P20) containing 0.1 mg/ml BSA at 25° C. All chemicals were obtained from Biacore® AB (GE Healthcare) or otherwise from a different source as described in the text. Approximately 5000 RU of goat anti-human IgG (Fcγ) fragment specific polyclonal antibody (Pierce Biotechnology Inc, Rockford, Ill.) diluted in 10 mM sodium acetate (pH 4.5) was directly immobilized across a CM5 research grade biosensor chip using a standard amine coupling kit according to manufacturer's instructions and procedures at 25 ug/ml. Unreacted moieties on the biosensor surface were blocked with ethanolamine. Modified carboxymethyl dextran surface in flowcell 2, 3 and 4 were used as a reaction surface. Modified carboxymethyl dextran with goat IgG in flow cell 1 was used as the reference surface. For kinetic analysis, rate equations derived from the 1:1 Langmuir binding model were fitted simultaneously to association and dissociation phases of all six injections (using global fit analysis with local float for Rmax) with the use of Biacore T200 Evaluation software v.1.0. Purified antibodies were diluted in HEPES-buffered saline for capture across goat anti-human IgG specific reaction surfaces. Antibodies to be captured as ligand (1-5 μg/ml) were injected over reaction matrices at a flow rate of 50 μl/minute. Association phase was monitored for 5 minutes, while dissociation phase was monitored for 10-60 minutes to accommodate for slower off-rates. The association and dissociation rate constants, ka (unit M-1 s-1) and kd (unit s-1) were determined under a continuous flow rate of 50 μl/minute. Rate constants were derived by making kinetic binding measurements at six different antigen concentrations ranging from 0.78 nM to 100 nM, depending on the species of IL-17 or TNFα tested. The association ka, dissociation rate kd and equilibrium dissociation constant KD were calculated with the use of the same Biacore T200 Evaluation software v.1.0.

Rhesus TNFa = molecular target: T2, Rhesus TNFa (rhesus, UniProt P48094 77-233); experiment: as above
T2 construct: also called Rhesus TNF-alpha
Description: as §2

Cynomolgus monkey IL-17A = molecular target: T3, Cynomolgus monkey IL-17A (cynomolgus monkey, UniProt A0A2K5TTB0 24-155); experiment: as above
T3 construct: also called Cyno IL-17AA; Cyno IL17AA
Description: as §2

Human IL-17A [3] = molecular target: T1, Human IL-17A; experiment: ELISA, captured antibody, biotin-human IL-17 titrated
Description: as §1, with “IL-17 antibodies” for “TNF/IL-17 DVD-Ig proteins”, “human” for “human TNF and”, “biotin-human” for “biotin-human TNF or”

Human IL-17A [4] = molecular target: T1, Human IL-17A; experiment: SPR (Biacore T200), antibody captured by anti-human IgG Fc, antigen in solution
Description: The binding of antibodies to purified recombinant IL-17 proteins was determined by surface plasmon resonance-based measurements with a Biacore® T200 instrument (GE Healthcare) using running HBS-EP (10 mM HEPES [pH 7.4], 150 mM NaCl, 3 mM EDTA, and 0.005% surfactant P20) containing 0.1 mg/ml BSA at 25° C. All chemicals were obtained from Biacore® AB (GE Healthcare) or otherwise from a source as described in the text. Approximately 5000 RU of goat anti-human IgG (Fcg) fragment specific polyclonal antibody (Pierce Biotechnology Inc, Rockford, Ill.) diluted in 10 mM sodium acetate (pH 4.5) was directly immobilized across a CM5 research grade biosensor chip using a standard amine coupling kit according to manufacturer's instructions and procedures at 25 μg/ml. Unreacted moieties on the biosensor surface were blocked with ethanolamine. Modified carboxymethyl dextran surface in flowcell 2, 3 and 4 were used as a reaction surface. Modified carboxymethyl dextran with Goat IgG in flow cell 1 was used as the reference surface. For kinetic analysis, rate equations derived from the 1:1 Langmuir binding model were fitted simultaneously to association and dissociation phases of all six injections (using global fit analysis with local float for Rmax) with the use of Biacore T200 Evaluation software v.1.0. Purified antibodies were diluted in HEPES-buffered saline for capture across goat anti-human IgG specific reaction surfaces. Antibodies to be captured as ligand (1-5 μg/ml) were injected over reaction matrices at a flow rate of 50 μl/minute. Association phase was monitored for 5 minute, while dissociation phase was monitored for 10-60 min to accommodate for slower off-rates. The association and dissociation rate constants, ka (unit M-1 s-1) and kd (unit s-1) were determined under a continuous flow rate of 50 μl/minute. Rate constants were derived by making kinetic binding measurements at six different antigen concentrations ranging from 0.78 nM to 100 nM, depending on the species of IL-17 tested. The association ka, dissociation rate kd and equilibrium dissociation constant KD were calculated with the use of the same Biacore T200 Evaluation software v.1.0.

T1 sequence (Q16552 20-155 limits assumed): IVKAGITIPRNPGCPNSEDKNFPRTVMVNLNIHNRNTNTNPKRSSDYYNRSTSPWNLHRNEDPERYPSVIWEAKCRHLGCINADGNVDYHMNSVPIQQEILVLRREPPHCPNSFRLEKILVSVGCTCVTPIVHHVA
T2 sequence (P48094 77-233 limits assumed): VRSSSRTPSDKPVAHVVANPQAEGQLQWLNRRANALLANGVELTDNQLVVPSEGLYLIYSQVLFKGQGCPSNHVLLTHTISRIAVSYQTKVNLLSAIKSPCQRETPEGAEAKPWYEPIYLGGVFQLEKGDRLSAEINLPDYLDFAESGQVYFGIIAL
T3 sequence (A0A2K5TTB0 entry or part of it): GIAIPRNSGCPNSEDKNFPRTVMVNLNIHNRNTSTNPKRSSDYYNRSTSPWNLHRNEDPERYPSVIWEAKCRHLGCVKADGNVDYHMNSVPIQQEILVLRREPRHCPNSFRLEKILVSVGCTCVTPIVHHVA

Binder | EC50 (Human IL-17A [1]) | Kd (Human IL-17A [2]) | kon (Human IL-17A [2]) | Kd (Rhesus TNFa) | koff (Rhesus TNFa) | kon (Rhesus TNFa) | Kd (Cynomolgus monkey IL-17A) | koff (Cynomolgus monkey IL-17A) | kon (Cynomolgus monkey IL-17A) | EC50 (Human IL-17A [3]) | Kd (Human IL-17A [4]) | koff (Human IL-17A [4]) | kon (Human IL-17A [4]) | koff (Human IL-17A [2])
hMAK199-4-h10F7-M11.8 DVD-Ig wt (bispecific antibody, human IgG1, kappa, DVD-Ig; wild-type IgG1, kappa; GS10 linkers; Uncertain; also called HMAK199-4-h10F7-M11.8 HC DVD wt) heavy: not shown light: DIQMTQSPSSLSASVGDRVTITCRASQDIENYLNWYQQKPGKAPKLLIYYTSRLQSGVPSRFSGSGSGTDFTLTISSLQPEDFATYFCQQGNTQPPTFGQGTKLEIKRGGSGGGGSGDIQMTQSPSSLSASVGDRVTITCRASSGIISYIDWFQQKPGKAPKRLIYATFDLASGVPSRFSGSGSGTDYTLTISSLQPEDFATYYCRQVGSYPETFGQGTKLEIKRTVAAPSVFIFPPSDEQLKSGTASVVCLLNNFYPREAKVQWKVDNALQSGNSQESVTEQDSKDSTYSLSSTLTLSKADYEKHKVYACEVTHQGLSSPVTKSFNRGEC | 0.1 nM | 0.0259 nM | 311000 M⁻¹ s⁻¹ | 0.00813 nM | 2.48e-05 s⁻¹ | 3.05e+06 M⁻¹ s⁻¹ | 0.0113 nM | 3.15e-06 s⁻¹ | 278000 M⁻¹ s⁻¹ | – | – | – | – | –
IL17-h10F7M-B20 hIgG1/K mut (antibody, V domains shown, Full length human IgG1/kappa, IgG1 mut(234,235); also called h10F7-B20; J439M1S2(H)3 #B20) VH: EVQLVQSGAEVKKPGSSVKVSCKASGYTFTDYEIHWVRQAPGQGLEWMGVNDPESGGTFYNQKFDGRVTLTADESTSTAYMELSSLRSEDTAVYYCTRYDKWYSFEGMDIWGQGTTVTVSS VL: DIQMTQSPSSLSASVGDRVTITCRASSGIISYIDWFQQKPGKAPKRLIYATFDLASGVPSRFSGSGSGTDYTLTISSLQPEDFATYYCRQVGSYPETFGQGTKLEIK | – | – | – | – | – | – | – | – | – | 0.07 nM | 0.00214 nM | 6.27e-06 s⁻¹ | 2.92e+06 M⁻¹ s⁻¹ | –
IL17-h10F7M-A6 hIgG1/K mut (antibody, V domains shown, Full length human IgG1/kappa, IgG1 mut(234,235); also called h10F7-A6; J439M1S2(H)3 #A6) VH: EVQLVQSGAEVKKPGSSVKVSCKASGYTFTDYEIHWVRQAPGQGLEWIGVNDPDSGGTLYNQKFDGRVTLTADESTSTAYMELSSLRSEDTAVYYCTRYDKWYSFEGMDIWGQGTTVTVSS VL: DIQMTQSPSSLSASVGDRVTITCSASQGIRSYIDWFQQKPGKSPKRLIYATFDLASGVPSRFSGSGSGTDYTLTISSLQPEDFATYYCRQVGNYPGTFGQGTKLEIK | – | – | – | – | – | – | – | – | – | 0.08 nM | 0.0015 nM | 4.48e-06 s⁻¹ | 2.99e+06 M⁻¹ s⁻¹ | –
hMAK195-21-h10F7-M11.8 DVD-Ig wt (bispecific antibody, human IgG1, kappa, DVD-Ig; wild-type IgG1, kappa; GS10 linkers; also called HMAK195-21-h10F7-M11.8 HC DVD wt) heavy: not shown light: DIQMTQSPSSLSASVGDRVTITCRASQLVSSAVAWYQQKPGKAPKLLIYWASARHTGVPSRFSGSGSGTDFTLTISSLQPEDFATYYCQQHYKTPFTFGQGTKLEIKRGGSGGGGSGDIQMTQSPSSLSASVGDRVTITCRASSGIISYIDWFQQKPGKAPKRLIYATFDLASGVPSRFSGSGSGTDYTLTISSLQPEDFATYYCRQVGSYPETFGQGTKLEIKRTVAAPSVFIFPPSDEQLKSGTASVVCLLNNFYPREAKVQWKVDNALQSGNSQESVTEQDSKDSTYSLSSTLTLSKADYEKHKVYACEVTHQGLSSPVTKSFNRGEC | 0.11 nM | 0.0386 nM | 239000 M⁻¹ s⁻¹ | 0.031 nM | 0.000141 s⁻¹ | 4.56e+06 M⁻¹ s⁻¹ | 0.0109 nM | 2.21e-06 s⁻¹ | 203000 M⁻¹ s⁻¹ | – | – | – | – | 9.26e-06 s⁻¹
hMAK195-21-h10F7-M11.8 DVD-Ig (bispecific antibody, human IgG1, kappa, L234A L235A, DVD-Ig, TNF outer / IL-17 inner domain; IgG1 234,235 mut, kappa; GS10 linkers; also called hMAK195-21-GS10-M11 DVD) heavy: not shown light: DIQMTQSPSSLSASVGDRVTITCRASQLVSSAVAWYQQKPGKAPKLLIYWASARHTGVPSRFSGSGSGTDFTLTISSLQPEDFATYYCQQHYKTPFTFGQGTKLEIKRGGSGGGGSGDIQMTQSPSSLSASVGDRVTITCRASSGIISYIDWFQQKPGKAPKRLIYATFDLASGVPSRFSGSGSGTDYTLTISSLQPEDFATYYCRQVGSYPETFGQGTKLEIKRTVAAPSVFIFPPSDEQLKSGTASVVCLLNNFYPREAKVQWKVDNALQSGNSQESVTEQDSKDSTYSLSSTLTLSKADYEKHKVYACEVTHQGLSSPVTKSFNRGEC | 0.095 nM | 0.0434 nM | 242000 M⁻¹ s⁻¹ | 0.0254 nM | 0.000132 s⁻¹ | 5.21e+06 M⁻¹ s⁻¹ | 0.0253 nM | 6.28e-06 s⁻¹ | 248000 M⁻¹ s⁻¹ | – | – | – | – | 1.05e-05 s⁻¹
hMAK195-24-h10F7-M11.8 DVD-Ig (bispecific antibody, human IgG1, kappa, L234A L235A, DVD-Ig; IgG1 234,235 mut, kappa; GS10 linkers; also called hMAK195-24-GS10-M11 DVD) heavy: not shown light: DIQMTQSPSSLSASVGDRVTITCKASQLVSSAVAWYQQKPGKAPKLLIYWASTLHTGVPSRFSGSGSGTDFTLTISSLQPEDFATYYCQQHYRTPFTFGQGTKLEIKRGGSGGGGSGDIQMTQSPSSLSASVGDRVTITCRASSGIISYIDWFQQKPGKAPKRLIYATFDLASGVPSRFSGSGSGTDYTLTISSLQPEDFATYYCRQVGSYPETFGQGTKLEIKRTVAAPSVFIFPPSDEQLKSGTASVVCLLNNFYPREAKVQWKVDNALQSGNSQESVTEQDSKDSTYSLSSTLTLSKADYEKHKVYACEVTHQGLSSPVTKSFNRGEC | 0.084 nM | 0.0427 nM | 251000 M⁻¹ s⁻¹ | 0.0716 nM | 0.000343 s⁻¹ | 4.78e+06 M⁻¹ s⁻¹ | 0.0241 nM | 6.25e-06 s⁻¹ | 259000 M⁻¹ s⁻¹ | – | – | – | – | 1.07e-05 s⁻¹
hMAK195-24-h10F7-M11.8 DVD-Ig wt (bispecific antibody, human IgG1, kappa, DVD-Ig; wild-type IgG1, kappa; GS10 linkers; also called HMAK195-24-h10F7-M11.8 HC DVD wt) heavy: not shown light: DIQMTQSPSSLSASVGDRVTITCKASQLVSSAVAWYQQKPGKAPKLLIYWASTLHTGVPSRFSGSGSGTDFTLTISSLQPEDFATYYCQQHYRTPFTFGQGTKLEIKRGGSGGGGSGDIQMTQSPSSLSASVGDRVTITCRASSGIISYIDWFQQKPGKAPKRLIYATFDLASGVPSRFSGSGSGTDYTLTISSLQPEDFATYYCRQVGSYPETFGQGTKLEIKRTVAAPSVFIFPPSDEQLKSGTASVVCLLNNFYPREAKVQWKVDNALQSGNSQESVTEQDSKDSTYSLSSTLTLSKADYEKHKVYACEVTHQGLSSPVTKSFNRGEC | 0.12 nM | 0.0363 nM | 233000 M⁻¹ s⁻¹ | 0.0752 nM | 0.00046 s⁻¹ | 6.12e+06 M⁻¹ s⁻¹ | 0.0201 nM | 4.29e-06 s⁻¹ | 214000 M⁻¹ s⁻¹ | – | – | – | – | 8.48e-06 s⁻¹
